Experimental data reported in patent publication US9266940 (Novo Nordisk, dated 2016).
Numbered stars: 1 amine (or outer) side, 2 acyl side, 3 side chain; on linkers, the order of the positions; unused ones are H or OH. Square brackets hold non-standard residues; d marks the D form. Side chains are listed from the residue outwards. Ends that are not written are not given here. * marks the point of attachment. Dodecanoyl(12-OPh(4-COOH)) = O=C(O)c1ccc(OCCCCCCCCCCCC(=O)*)cc1; Decanoyl(10-(4-HOOC-PhO)) = O=C(O)c1ccc(OCCCCCCCCCC(=O)*)cc1; γGlu = O=C(O)[C@H](CCC(=O)[*:2])N[*:1]; C14 diacid = O=C(O)CCCCCCCCCCCCC(=O)*; AEEA = NCCOCCOCC(=O)O; Aib = CC(C)(N)C(=O)O

B1: N^ε20-[2-[2-[2-[[2-[2-[2-[[(4S)-4-carboxy-4-[10-(4-carboxyphenoxy)decanoylamino]butanoyl]amino]ethoxy]ethoxy]acetyl]amino]ethoxy]ethoxy]acetyl], … (peptide)
peptide: H[Aib]EGTFTSDVSSYK([AEEA-AEEA-γGlu-Decanoyl(10-(4-HOOC-PhO))])EEQAARK([AEEA-AEEA-γGlu-Decanoyl(10-(4-HOOC-PhO))])FIEWLVG
B2: N^ε27-[2-[2-[2-[[2-[2-[2-[[(4S)-4-carboxy-4-[10-(4-carboxyphenoxy)decanoylamino]butanoyl]amino]ethoxy]ethoxy]acetyl]amino]ethoxy]ethoxy]acetyl], … (peptide)
peptide: HAEGTFTSDVSSYLEEQAARK([AEEA-AEEA-γGlu-Decanoyl(10-(4-HOOC-PhO))])FIEWLVRGK([AEEA-AEEA-γGlu-Decanoyl(10-(4-HOOC-PhO))])GEG
B3: N^ε22-[2-[2-[2-[[2-[2-[2-[[(4S)-4-carboxy-4-(13-carboxytridecanoylamino)butanoyl]amino]ethoxy]ethoxy]acetyl]amino]ethoxy]ethoxy]acetyl]N^ε27-[2-[2-[2-[[2-[2-[2- … (peptide)
peptide: H[Aib]EGTFTSDVSSYLEK([AEEA-AEEA-γGlu-C14 diacid])QAVRK([AEEA-AEEA-γGlu-C14 diacid])FIAWLVRG
B4: N^ε22-[2-[2-[2-[[2-[2-[2-[[(4S)-4-carboxy-4-(13-carboxytridecanoylamino)butanoyl]amino]ethoxy]ethoxy]acetyl]amino]ethoxy]ethoxy]acetyl], … (peptide)
peptide: H[Aib]EGTFTSDVSSYLEK([AEEA-AEEA-γGlu-C14 diacid])QAVRK([AEEA-AEEA-γGlu-C14 diacid])FIAWLVR
B5: N^ε27-[2-[2-[2-[[2-[2-[2-[[(4S)-4-carboxy-4-[10-(4-carboxyphenoxy)decanoylamino]butanoyl]amino]ethoxy]ethoxy]acetyl]amino]ethoxy]ethoxy]acetyl], … (peptide)
peptide: HAEGTFTSDVSSYLEEQAARK([AEEA-AEEA-γGlu-Decanoyl(10-(4-HOOC-PhO))])FIAWLVRGK([AEEA-AEEA-γGlu-Decanoyl(10-(4-HOOC-PhO))])
modifications: ends and bridges not checked
B6: N^ε27-[2-[2-[2-[[2-[2-[2-[[(4S)-4-carboxy-4-[12-(4-carboxyphenoxy)dodecanoylamino]butanoyl]amino]ethoxy]ethoxy]acetyl]amino]ethoxy]ethoxy]acetyl], … (peptide)
peptide: HAEGTFTSDVSSYLEEQAARK([AEEA-AEEA-γGlu-Dodecanoyl(12-OPh(4-COOH))])FIEWLVRGK([AEEA-AEEA-γGlu-Dodecanoyl(12-OPh(4-COOH))])GEG
notes: also called 32
B7: N^ε27-[2-[2-[2-[[2-[2-[2-[[(4S)-4-carboxy-4-[10-(4-carboxyphenoxy)decanoylamino]butanoyl]amino]ethoxy]ethoxy]acetyl]amino]ethoxy]ethoxy]acetyl], … (peptide)
peptide: H[Aib]EGTFTSDVSSYLEEQAARK([AEEA-AEEA-γGlu-Decanoyl(10-(4-HOOC-PhO))])FIEWLVRGK([AEEA-AEEA-γGlu-Decanoyl(10-(4-HOOC-PhO))])GEG
notes: also called 31
B8: N^ε24-[2-[2-[2-[[2-[2-[2-[[(4S)-4-carboxy-4-[10-(4-carboxyphenoxy)decanoylamino]butanoyl]amino]ethoxy]ethoxy]acetyl]amino]ethoxy]ethoxy]acetyl], … (peptide)
peptide: HAEGTFTSDVSSYLEEQK([AEEA-AEEA-γGlu-Decanoyl(10-(4-HOOC-PhO))])ARK([AEEA-AEEA-γGlu-Decanoyl(10-(4-HOOC-PhO))])FIAHLVG
notes: also called 25

Assays:
human GLP-1 receptor [1] = biological target: T1, human GLP-1 receptor (human, UniProt P43220 24-463); experiment: cell-based or functional assay
human GLP-1 receptor [2] = biological target: T1, human GLP-1 receptor; experiment: SPA displacement assay; IC50 at 2.0% HSA over IC50 at 0.001% HSA
Protocol: (§1) A shift in the binding affinity, $IC50$, is an indication that the peptide in question binds to albumin, and thereby a prediction of a potential protracted pharmacokinetic profile of the peptide in question in animal models.
(§2) 50 ul (micro liter) HSA ("high albumin" experiment containing 2% HSA), or buffer ("low albumin" experiment containing 0.001% HSA), was added to Optiplate, and 25 ul of test compounds were added. 5-10 ug membrane protein/sample was added (50 ul) corresponding to 0.1-0.2 mg protein/ml (to be preferably optimised for each membrane preparation). SPA-particles (Wheatgerm agglutinin SPA beads, Perkin Elmer, #RPNQ0001) were added in an amount of 0.5 mg/well (50 ul). […] The plates were sealed with PlateSealer and incubated for 120 minutes at 30° C. while shaking. The plates were centrifuged (1500 rpm, 10 min) and counted in Topcounter.

human GLP-1 receptor [3] = biological target: T1, human GLP-1 receptor; experiment: SPA, displacement of 125I-GLP-1(7-36)NH2 from hGLP-1R BHK membranes, high HSA (2.0%)
Protocol: as §1, §2

human GLP-1 receptor [4] = biological target: T1, human GLP-1 receptor; experiment: SPA, displacement of 125I-GLP-1(7-36)NH2 from hGLP-1R BHK membranes, low HSA (0.001%)
Protocol: as §1, §2

| Binder | EC50/pM (in vitro potency, cAMP formation, AlphaScreen) (human GLP-1 receptor [1]) [pM] | Ratio [(IC50/nM) high HSA]/[(IC50/nM) low HSA] (human GLP-1 receptor [2]) | IC50 (human GLP-1 receptor [3]) [nM] | IC50 (human GLP-1 receptor [4]) [nM] |
| --- | --- | --- | --- | --- |
| B1 | 468 | 79 | 446 | 5.68 |
| B2 | 43 | 821 | 320 | 0.39 |
| B3 | 242 | 157 | 60 | 0.38 |
| B4 | 159 | 57 | 80 | 1.41 |
| B5 | 62 | 101 | 29 | 0.29 |
| B6 | 76 | 2050 | 369 | 0.18 |
| B7 | 37 | 629 | 220 | 0.35 |
| B8 | 380 | 3.5 | 39 | 10.9 |
